T1: NT-4 (neurotrophin-4) (Homo sapiens, UniProt P34130 P34130:81-210)
T1 sequence: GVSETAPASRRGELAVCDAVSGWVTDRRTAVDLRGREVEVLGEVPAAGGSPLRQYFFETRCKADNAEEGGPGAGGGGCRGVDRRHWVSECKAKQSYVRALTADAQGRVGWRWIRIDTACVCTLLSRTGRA

T2: NT-3 (neurotrophin-3) (Homo sapiens, UniProt P20783 P20783:139-257)
T2 sequence: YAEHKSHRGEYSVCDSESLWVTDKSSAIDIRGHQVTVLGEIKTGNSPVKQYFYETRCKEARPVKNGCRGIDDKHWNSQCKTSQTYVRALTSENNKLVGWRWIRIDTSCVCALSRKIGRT


Legend:
Details in all cases: tags: R&D Systems; chain copies: 2
[1] = target: T3, NGF (nerve growth factor) (Homo sapiens, UniProt P01138 P01138:122-241); assay: cell_activity; TF-1 proliferation
T3 sequence (P01138 122-241, one chain of several): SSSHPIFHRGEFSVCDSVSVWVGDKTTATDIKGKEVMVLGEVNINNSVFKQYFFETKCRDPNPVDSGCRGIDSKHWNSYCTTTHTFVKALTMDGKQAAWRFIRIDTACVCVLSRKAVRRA
Protocol: (§1) Two NGF receptor (human TrkA and human p75) genes were introduced into TF-1 cells (ATCC Number: CRL-2003), which is a human erythroleukemic cell line, by using a retrovirus vector to give cells that highly express two receptors simultaneously and stably. The cells were suspended in an RPMI-1640 medium containing 20% fetal bovine serum, and seeded in a white 96 well flat-bottom plate at 1000 cells (50 μL) per well. […] With the amount of luminescence per well obtained by the addition of NGF alone and culture of the cells for 3 days as inhibitory activity 0%, and that of the well obtained by NGF free culture for 3 days as inhibitory activity 100%, the inhibitory activity of the aptamer was calculated from the amount of luminescence per well obtained by culturing with the addition of NGF and the aptamer in mixture.

[2] = target: T3, NGF (nerve growth factor); assay: cell_activity; neurite; TF-1 >10
NT-4 (neurotrophin-4) = target: T1, NT-4 (neurotrophin-4); assay: SPR; scarcely bound
Protocol: (§2) The binding activity of these shortened forms to NGF and NT-3 was measured by the surface plasmon resonance method. For the measurement method, BIAcore2000 manufactured by BIAcore was used and CM5 reactive with amino group was used as a sensorchip, as shown in Example 1. The protein was immobilized in the same manner as in Example 1 by using ethyl-3-carbodiimide hydrochloride and N-hydroxysuccinimide. […] After protein immobilization, blocking with ethanolamine-HCl was performed. The amount of immobilized NGF and NT-3 was 3,000-4,000 RU and 3,000-5,000 RU, respectively. The aptamer for an analyte was prepared to 0.15 μM-0.5 μM. The running buffer and regeneration solution were the same as those in Example 1. NT-3 was immobilized on FC2, and NGF on FC3, and the final sensorgram was obtained by subtracting the results of FC1.
(§3) Then, the aptamers were subjected to shortening to 40 mer in the same manner as with consensus secondary structure 1. […] NT-4 was measured in the same manner as in NT-3.
(§4) The shortened sequences were measured for the binding to NGF, NT-3, NT-4 by the surface plasmon resonance method. The measurement was performed in the same manner as in Example 13.

NT-3 (neurotrophin-3) = target: T2, NT-3 (neurotrophin-3); assay: SPR; scarcely bound
Protocol: as §2, §3, §4

[3] = target: T3, NGF (nerve growth factor); assay: cell_activity; neurite; TF-1 0.193
[4] = target: T3, NGF (nerve growth factor); assay: cell_activity; neurite; TF-1 0.183
[5] = target: T3, NGF (nerve growth factor); assay: cell_activity; neurite; TF-1 0.455
[6] = target: T3, NGF (nerve growth factor); assay: cell_activity; neurite; TF-1 0.322
[7] = target: T3, NGF (nerve growth factor); assay: cell_activity; neurite; TF-1 0.296
[8] = target: T3, NGF (nerve growth factor); assay: cell_activity; neurite; TF-1 0.311
Protocol: With the neurite length per cell obtained by the addition of NGF alone as inhibitory activity 0%, and that of the cell obtained by NGF free culture for 2 days as inhibitory activity 100%, the inhibitory activity of the aptamer was calculated from the neurite length per cell obtained by culturing with the addition of NGF and the aptamer in mixture.
as §1

Binder	binding result (NT-4 (neurotrophin-4))	binding result (NT-3 (neurotrophin-3))	also measured
GGGUCCUGCUGCGGAGUUUCCGUCUCGGUGGCUGUUACCC (ssRNA, 2'-OMe G (G8,G34 2'-OH), dA, 2'-F C/U; 5',3' idT) [SEQ ID NO: 62(1)]	–	–	IC50 [1]: 0.49 nM
GGGUCCUGCUGCGUAGUUUCCUUCUGCGUGGUUGUUACCC (ssRNA, 2'-F C/U, dA, 2'-OH G) [SEQ ID NO: 86]	–	–	IC50 [2]: 0.834 nM
GGGUCCUGUUCAAGAGUUUCCGUCUCGUGGACUGUUACCC (ssRNA, 2'-F C/U, dA, 2'-OH G) [SEQ ID NO: 112]	no binding	no binding	IC50 [3]: 0.334 nM
GGGUCCUGUCUAAGAGUUUCCGUCUCGUAGACUGUUACCC (ssRNA, 2'-F C/U, dA, 2'-OH G) [SEQ ID NO: 115]	no binding	no binding	IC50 [4]: 0.298 nM
GGGUCCUGUUGAAGAGUUUCCGUCUCGUCAACUGUUACCC (ssRNA, 2'-F C/U, dA, 2'-OH G) [SEQ ID NO: 117]	no binding	no binding	IC50 [5]: 0.394 nM
GGGUCCUGUUCAAGAGUUUCCGUCUCGUGAACUGUUACCC (ssRNA, 2'-F C/U, dA, 2'-OH G) [SEQ ID NO: 116]	–	no binding	IC50 [6]: 0.411 nM
GGGUCCUGACAAAGAGUUUCCGUCUCGUUGUCUGUUACCC (ssRNA, 2'-F C/U, dA, 2'-OH G) [SEQ ID NO: 114]	no binding	no binding	IC50 [7]: 0.363 nM
GGGUCCUGAGUAAGAGUUUCCGUCUCAUACUCUGUUACCC (ssRNA, 2'-F C/U, dA, 2'-OH G) [SEQ ID NO: 85]	–	–	IC50 [8]: < 0.3 nM
